Columns and labels:
kallikrein 2 (KLK2) = kallikrein 2 (KLK2) (UniProt P20151)
[1] = molecular target: recombinant soluble murine proADAM10 (truncated, lacking the signal peptide and the regions C-terminal of the protease domain) (murine); test: SDS-PAGE with western blot + MALDI-TOF; purified recombinant proADAM10; anti-His-tag western blot and MALDI-TOF; a 100-kDa species called the proADAM10 dimer

UniProt P20151, sequence (P20151 19-261): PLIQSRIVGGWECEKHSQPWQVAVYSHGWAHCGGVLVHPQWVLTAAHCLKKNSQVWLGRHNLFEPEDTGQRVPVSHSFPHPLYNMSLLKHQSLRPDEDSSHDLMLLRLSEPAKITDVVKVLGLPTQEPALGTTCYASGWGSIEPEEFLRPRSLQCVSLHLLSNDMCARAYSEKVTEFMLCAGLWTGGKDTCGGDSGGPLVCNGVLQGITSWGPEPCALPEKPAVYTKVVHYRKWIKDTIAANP

Substance | KLK2 proteolytic activity (Z-Pyr-G-R-AMC) after incubation with meprin β-cleaved LEKTI 9–15, relative to uncleaved LEKTI 9–15 (kallikrein 2 (KLK2)) [%] | stoichiometry N [1]
meprin β-cleaved LEKTI 9–14 (domain or fragment) | 20 | 
recombinant soluble murine proADAM10 (truncated, lacking the signal peptide and the regions C-terminal of the protease domain) (domain or fragment) |  | 2
